Reference: paper PMC4749977, “Alp7/TACC-Alp14/TOG generates long-lived, fast-growing MTs by an unconventional mechanism” (Scientific Reports, 2016)

What was measured:
[1] = biological target: the molecule itself; test: DIC video microscopy of microtubule growth; addition of GTP-tubulin to plus and minus ends of MTs nucleated by axoneme fragments; growth rate against tubulin concentration, linear regression, apparent rate constants; 100 mM K-PIPES, 1 mM MgSO4, 2 mM EGTA, 1 mM DTT pH 6.9, 1 mM GTP, no glycerol, 25 °C
[2] = biological target: T1, Alp7 with Alp14-GFP (tip tracking Alp7-14 complexes) (S. pombe, UniProt O94534 1-809; Q9URY2 1-474, biotin on the AviTag (BirA ligase co-expressed to ensure biotinylation)); test: TIRF microscopy of Alp14-GFP on dynamic microtubules; dual-TIRF; MTs nucleated by immobilized Alexa488 labeled seeds using 6 μM S. pombe tubulin doped with 2.5% (150 nM) rhodamine labeled brain tubulin; Alp14-GFP without or with Alp7; conditions: both partners purified
T1 construct: Alp14 of S. pombe, as the chain of m9; Alp7 of S. pombe, full length, as the chain of m2; source: each from Sf9 insect cells (baculovirus), purified, added together to the assay
T1 sequence (looked up) 1: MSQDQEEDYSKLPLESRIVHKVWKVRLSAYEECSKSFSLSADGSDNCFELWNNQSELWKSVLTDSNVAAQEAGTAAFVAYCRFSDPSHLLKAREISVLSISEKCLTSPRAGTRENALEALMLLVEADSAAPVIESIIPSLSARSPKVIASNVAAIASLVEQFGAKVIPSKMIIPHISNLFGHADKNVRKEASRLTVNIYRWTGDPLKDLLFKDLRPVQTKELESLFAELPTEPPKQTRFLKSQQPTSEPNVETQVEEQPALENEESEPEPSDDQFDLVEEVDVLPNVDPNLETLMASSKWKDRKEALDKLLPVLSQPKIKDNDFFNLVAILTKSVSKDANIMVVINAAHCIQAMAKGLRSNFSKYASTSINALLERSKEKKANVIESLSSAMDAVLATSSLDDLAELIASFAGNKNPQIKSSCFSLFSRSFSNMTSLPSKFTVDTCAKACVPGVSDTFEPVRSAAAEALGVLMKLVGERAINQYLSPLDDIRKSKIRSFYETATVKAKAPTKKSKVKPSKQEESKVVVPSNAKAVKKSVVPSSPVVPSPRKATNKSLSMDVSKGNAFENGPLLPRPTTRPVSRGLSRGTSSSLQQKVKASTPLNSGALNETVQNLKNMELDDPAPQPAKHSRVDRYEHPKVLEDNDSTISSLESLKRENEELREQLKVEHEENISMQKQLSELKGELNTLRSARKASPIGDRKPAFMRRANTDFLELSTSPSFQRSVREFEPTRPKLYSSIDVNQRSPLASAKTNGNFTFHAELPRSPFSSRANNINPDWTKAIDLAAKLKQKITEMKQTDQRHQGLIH
T1 sequence (looked up) 2: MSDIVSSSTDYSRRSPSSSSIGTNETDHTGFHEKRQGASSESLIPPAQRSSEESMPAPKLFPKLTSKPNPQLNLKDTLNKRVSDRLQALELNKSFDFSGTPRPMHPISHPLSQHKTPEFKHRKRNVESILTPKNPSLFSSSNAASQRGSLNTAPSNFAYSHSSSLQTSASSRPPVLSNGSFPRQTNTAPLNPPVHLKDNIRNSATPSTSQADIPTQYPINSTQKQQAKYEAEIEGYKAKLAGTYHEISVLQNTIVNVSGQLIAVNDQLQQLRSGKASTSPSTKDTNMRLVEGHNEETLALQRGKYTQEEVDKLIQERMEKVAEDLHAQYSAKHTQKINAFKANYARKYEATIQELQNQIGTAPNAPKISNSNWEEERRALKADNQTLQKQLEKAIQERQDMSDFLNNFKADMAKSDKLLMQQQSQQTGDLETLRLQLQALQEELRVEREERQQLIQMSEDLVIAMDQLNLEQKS

[3] = biological target: T2, Alp7-14 complex (full length Alp14 mixed with full length Alp7) (S. pombe, UniProt O94534 1-809; Q9URY2 1-474, biotin on the AviTag (BirA ligase co-expressed to ensure biotinylation)); test: glycerol gradient centrifugation; 5-40% glycerol gradient of purified Alp14, Alp7 and tubulin, alone or mixed; tubulin as GTP-tubulin where stated; fractions on SDS-PAGE with Coomassie staining; conditions: both partners purified
T2 construct: Alp14 of S. pombe, full length, as the chain of m1; Alp7 of S. pombe, full length, as the chain of m2; also called Alp7/TACC-Alp14/TOG; source: each from Sf9 insect cells (baculovirus), purified, then mixed
T2 sequence (looked up) 1: T1 sequence (looked up) 1
T2 sequence (looked up) 2: T1 sequence (looked up) 2

- binding result [2]: binds
- binding result [3]: binds
B1: S. pombe single isoform (α1β) tubulin (complex)
chain 1: MREVISVHVGQAGVQIGNACWELYCLEHGIGPDGFPTENSEVHKNNSYLNDGFGTFFSETGQGKFVPRSIYVDLEPNVIDQVRTGPYKDLFHPEQMVTGKEDASNNYARGHYTVGKEMIDSVLERIRRMADNCSGLQGFLVFHSFGGGTGSGLGALLLERLNMEYGKKSNLQFSVYPAPQVSTSVVEPYNSVLTTHATLDNSDCTFMVDNEACYDICRRNLDIERPTYENLNRLIAQVVSSITASLRFAGSLNVDLNEFQTNLVPYPRIHFPLVTYSPIVSAAKAFHESNSVQEITNQCFEPYNQMVKCDPRTGRYMATCLLYRGDVIPRDVQAAVTSIKSRRTIQFVDWCPTGFKIGICYEPPQHVPGSGIAKVNRAVCMLSNTTSIAEAWSRLDHKFDLMYSKRAFVHWYVGEGMEEGEFSEAREDLAALERDYEEVGQDSMDNEMYEADEEY
chain 2: MREIVHIQAGQCGNQVGAAFWSTIADEHGLDSAGIYHGTSEAQHERLNVYFNEAAGGKYVPRAVLVDLEPGTMDAVKSGKFGNLFRPDNIIYGQSGAGNIWAKGHYTEGAELADAVLDVVRREAEACDALQGFQLTHSLGGGTGSGMGTLLLSKIREEYPDRMMATFSVAPAPKSSDTVVEPYNATLSMHQLVENSDETFCIDNEALSSIFANTLKIKSPSYDDLNHLVSAVMAGVTTSFRFPGELNSDLRKLAVNMVPFPRLHFFMVGFAPLAAIGSSSFQAVSVPELTQQMFDANNMMVAADPRHGRYLTVAALFRGKVSMKEVDEQIRSVQTKNSAYFVEWIPDNVLKAVCSVPPKDLKMSATFIGNSTSIQEIFRRLGDQFSAMFRRKAFLHWYTGEGMDEMEFTEAESNMNDLVSEYQQYQEAGIDEGDEDYEIEEEKEPLEY
notes: alpha-1 tubulin of S. pombe, untagged, endogenous; beta tubulin of S. pombe, untagged, endogenous; Used as free heterodimer (GTP or GDP form) in the gradients and polymerised into dynamic microtubules in the microscopy assays; the assay's format tells which; also called single isoform S. pombe tubulin; S. pombe tubulin; source: purified from S. pombe single isoform strain (mmsp174): ion exchange, …
- Kd = koff/kon (critical concentration), minus end [1]: 0.9 µM
- Kd = koff/kon (critical concentration), plus end [1]: 1.2 µM
